According to US20200109196A1 (MOGAM INSTITUTE FOR BIOMEDICAL RESEARCH, published 2020):

Columns and labels:
Test in all cases: flow cytometry on transfected HEK293 cells (GFP+ gate), PE goat anti-huIgG4 [a]
[1] = molecular target: T1, CEACAM3 expressed on the surface of HEK293 cells (human, UniProt P40198 35-252)
T1 construct: whole, on cells; GFP-tagged clone; also called CEACAM3-GFP
T1 sequence (looked up): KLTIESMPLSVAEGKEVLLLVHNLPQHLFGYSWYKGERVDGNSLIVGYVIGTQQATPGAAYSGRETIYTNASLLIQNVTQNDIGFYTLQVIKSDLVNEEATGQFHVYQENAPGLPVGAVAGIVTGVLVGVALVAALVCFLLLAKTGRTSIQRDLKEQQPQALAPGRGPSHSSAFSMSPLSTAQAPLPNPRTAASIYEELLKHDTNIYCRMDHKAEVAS
Method: (§1) HEK293 cells were added with 10 μg of each pEF1α-AcGFP-N1 vector (Clontech, Cat. No. 631973) as a control vector, CEACAM1, CEACAM3, CEACAM5, CEACAM6 and CEACAM8 plasmid vectors, followed by transfection under the condition of pulse voltage 1,100 V, pulse width 20 ms and pulse number 2. After 48 hours of transfection, GFP expression was confirmed by fluorescence microscopy. The cells were detached by treatment with 1 ml of TrypLE Express Solution (ThermoFisher Scientific; Cat. No. 12605010), resuspended in 9 ml of DMEM (Gibco, Cat. No. 11995-065) supplemented with 10% (v/v) FBS, and centrifuged at 1,200 rpm for 5 minutes, to remove the resulting supernatant.
(§2) After washing once with PBS, the cells were resuspended in a FACS buffer to obtain a concentration of 5×10⁵ cells/100 μl. Human Fc Block solution was added to the samples at 1 μl/sample, which were incubated at 4° C. for 10 minutes. The cells were treated with hulgG4 or one of the anti-CEACAM1 clones listed at 1 μg/5×10⁵ cells, which were incubated at 4° C. for 10 minutes. After washing with FACS buffer, the PE-labeled goat-anti-huIgG4 antibodies were diluted at a ratio of 1:200 in a FACS buffer, and added to the samples at 100 μl/sample, which were incubated at 4° C. for 30 minutes. The samples were filled with a FACS buffer up to 200 μl, and then centrifuged at 1,200 rpm for 5 minutes, to remove the resulting supernatant. The fixation buffer (300 μl) was added to resuspend the cells. The cells expressing GFP were selected in the FACS LSR-Fortessa device, and the expression of CEACAM members were evaluated respectively using the antibody specific to each CEACAM member (Table 3). Also, the binding of anti-CEACAM1 antibodies was evaluated by PE fluorescence channel and analyzed using the FlowJo software.

[2] = molecular target: T2, CEACAM5 expressed on the surface of HEK293 cells (human, UniProt P06731 35-685)
T2 construct: whole, on cells; GFP-tagged clone; also called CEACAM5-GFP
T2 sequence (looked up): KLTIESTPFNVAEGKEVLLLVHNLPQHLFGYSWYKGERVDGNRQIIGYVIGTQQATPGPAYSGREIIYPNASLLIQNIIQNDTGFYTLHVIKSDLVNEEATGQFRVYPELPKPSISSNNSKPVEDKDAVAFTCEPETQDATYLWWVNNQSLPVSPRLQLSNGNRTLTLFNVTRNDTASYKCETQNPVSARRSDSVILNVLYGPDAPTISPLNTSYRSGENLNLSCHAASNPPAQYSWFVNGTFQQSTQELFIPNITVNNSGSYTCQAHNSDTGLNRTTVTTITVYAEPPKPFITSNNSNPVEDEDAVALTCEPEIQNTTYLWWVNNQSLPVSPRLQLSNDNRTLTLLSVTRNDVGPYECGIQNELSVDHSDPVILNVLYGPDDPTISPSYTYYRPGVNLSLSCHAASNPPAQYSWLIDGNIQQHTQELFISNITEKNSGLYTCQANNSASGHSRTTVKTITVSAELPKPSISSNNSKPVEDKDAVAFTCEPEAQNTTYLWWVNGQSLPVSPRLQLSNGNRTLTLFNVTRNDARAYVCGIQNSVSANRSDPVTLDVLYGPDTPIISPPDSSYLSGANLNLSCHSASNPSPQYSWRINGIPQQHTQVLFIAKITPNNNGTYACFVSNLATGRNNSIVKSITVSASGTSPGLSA
Method: as §1, §2

[3] = molecular target: T3, CEACAM6 expressed on the surface of HEK293 cells (human, UniProt P40199 35-320)
T3 construct: whole, on cells; GFP-tagged clone; also called CEACAM6-GFP
T3 sequence (looked up): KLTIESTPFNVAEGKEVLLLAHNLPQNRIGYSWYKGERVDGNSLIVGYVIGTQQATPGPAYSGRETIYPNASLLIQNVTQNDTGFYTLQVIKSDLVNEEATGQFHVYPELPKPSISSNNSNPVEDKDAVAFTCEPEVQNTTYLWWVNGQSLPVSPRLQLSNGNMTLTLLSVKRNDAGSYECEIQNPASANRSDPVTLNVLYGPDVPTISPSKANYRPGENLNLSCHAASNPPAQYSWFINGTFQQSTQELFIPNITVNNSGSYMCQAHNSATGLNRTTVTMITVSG
Method: as §1, §2

[4] = molecular target: T4, CEACAM8 expressed on the surface of HEK293 cells (human, UniProt P31997 35-320)
T4 construct: whole, on cells
T4 sequence (looked up): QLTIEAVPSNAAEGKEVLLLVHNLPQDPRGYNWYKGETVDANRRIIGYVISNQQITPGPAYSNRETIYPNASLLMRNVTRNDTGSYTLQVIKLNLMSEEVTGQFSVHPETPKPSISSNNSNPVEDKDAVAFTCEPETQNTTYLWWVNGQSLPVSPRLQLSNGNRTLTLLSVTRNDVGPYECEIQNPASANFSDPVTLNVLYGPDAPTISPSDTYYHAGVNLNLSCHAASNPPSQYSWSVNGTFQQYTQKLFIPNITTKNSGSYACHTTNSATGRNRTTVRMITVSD
Method: as §1, §2

Measured: binding result

B1: C25 (antibody, human IgG4 S228P, lambda, V domains shown)
VH: EVQLLESGGGLVQPGGSLRLSCAASGFTFSNYAMSWVRQAPGKGLEWVSVISHGGGSIYYADSVKGRLTISRDNSKNTLYLQMNSLRAEDTAVYYCARDPTKGYAPTFDYWGQGTLVTVSS
VL: QSVLTQPPSASGTPGQRVTISCSGSSSNIGNNYVSWYQQLPGTAPKLLIYADSKRPSGVPDRFSGSKSGTSASLAISGLRSEDEADYYCGAWDASLNGYVFGGGTKLTVLG
notes: Made in ExpiHEK293F cells, protein A purified. huIgG4 is the isotype control and anti-huIgG4 the detection reagent; the isotype is not otherwise stated; also called anti-CEACAM1 antibody C25
no binding: all assays above
